Data on 1 molecule can be found in publication PMC7108782, “Direct interaction of metastasis-inducing S100P protein with tubulin causes enhanced cell migration without changes in cell adhesion” (Biochemical Journal, 2020).

Several values for one entry are separate records, joined by “and”; a condition that tells them apart may be missing. Identical values can stand only once. Like-named read-outs stand apart in the source and are kept apart here.

For orientation: Kd means the constant that tells how readily two partners part at equilibrium.

Assay [1] relates to α,β-tubulin. Description: SPR binding of S100P to immobilised α,β-tubulin. The note with it: for Kd: mean ± SE, 3 experiments. More on the design: species or system human. From the text:
The coding sequences for full length (human) α-tubulin and for N-terminal and C-terminal halves of α or β-tubulin were generated using PCR with specific primers shown in Supplementary Table S1 and sub-cloned into pET16(b) for expressing and purifying His-tagged full-length α-tubulin and His-tagged tubulin fragments in E. coli, as described previously. β-tubulin was purchased from Abcam.
For SPR binding assays, α,β-tubulin proteins described earlier were immobilised on a carboxymethylated dextran surface of a CM5 chip using BS^3 for use in Biocore X100. Recombinant S100P produced as described previously was used as a ligand in different concentrations at 20, 50, 100, 200, 1000, 2000 nM for calculation of the equilibrium dissociation constant (Kd) from the association/dissociation rate constants and from the extent of binding near equilibrium (Supplementary Table S2), as described previously. To detect the effects of tubulin peptides on the interaction of tubulin, different concentrations of tagged and untagged peptides were mixed with 1 µM S100P first and the mixtures were then applied to the tubulin-coated chip. The relative changes in kinetics and binding extents with different peptides were calculated using software provided by the manufacturer.
For orientation: Surface plasmon resonance follows binding to a sensor surface in real time, without labels.

In assay [2] the test system is tubulin polymerisation in COS-7 S10 cells. Description: In vivo tubulin polymerisation assay, COS-7 / COS-7 S10. Type of assay: cell-based, monkey. As for the experimental part: (§1) HeLa and S100P-inducible HeLa, COS-7 and S100P-inducible COS-7 cells were routinely cultured with or without doxycycline (1 µg/ml) and treated with 33 µM nocodazole for 24 h to synchronise the cells. Then the nocodazole was washed away (First release) and the synchronised cells were cultured in normal medium for 4 h to allow them to complete cell division. The nocodazole was then added again for 4 h to dissociate all the MTs. After this time, nocodazole was again removed by extensive washings (Second release) and tubulin was allowed to polymerise in the interphase of the cell cycle for different times. The cells were treated with buffer (10 mM Tris–HCl, 150 mM KCl, pH 7.4, 2% (v/v) Triton X-100) and the Triton-X100-insoluble tubulins (representing the newly formed MTs) were solubilised in Sample Buffer and quantified by Western blotting. To test the effect of tubulin-derived peptides, 20 µM T-DIC, T-DLV, T-IMN and tag-peptide alone (Supplementary Table S3) in 0.25% (v/v) DMSO as solvent, as well as the solvent control 0.25% (v/v) DMSO were added immediately after the second release in Sample Buffer and quantified at the different time points by Western blotting.

The test system of assay [3] is tubulin polymerisation in HeLa-A19 cells. As to the kind of experiment: In vivo tubulin polymerisation assay, HeLa / HeLa-A19. The class given is cell-based, human. The note with it: HeLa-A19, 4 h after second release, 1 µg/ml doxycycline. As for the experimental part: as §1
Assay [4] concerns COS-7 S10 cells. Description: Boyden chamber cell migration, S100P-inducible COS-7. The class given is cell-based, monkey. The note with it: 24 h. From the text:
(§2) Cell migration rate (%) = M/G × 100.

For assay [5], the system named is HeLa-A3 cells. Description: S100P-enhanced cell migration, HeLa-A3. Type of assay: cell-based, human. The note with it: HeLa-A3, doxycycline 1 µg/ml, 24 h.
Description: as §2

The subject of assay [6] is tubulin. As to the kind of experiment: Co-immunoprecipitation, COS-7 S10 lysates. The class given is binding, monkey. The note with it: S100P-induced COS-7 S10 lysates, 0.5 mM CaCl2. The protocol:
For co-immunoprecipitations, S100P-inducible COS-7 cells were incubated with 1 µg/ml doxycycline for 16 h and lysed in RIPA buffer (Thermo Fisher Scientific, Loughborough, U.K.) with 0.5 mM CaCl2. After sonication and centrifugation as described above, control antibody (rabbit IgG from Sigma), anti-tubulin or anti-S100P were added to three separate tubes containing 0.7 ml each of cell lysate and incubated overnight at 4°C. Then 100 µl Dynabeads® ProteinG (Thermo Fisher Scientific) were added to each tube and the contents incubated for 4 h at 4°C. After extensive washings with washing buffer (10 mM Tris–HCl, pH 7.4, 150 mM NaCl, 1% (v/v) Triton X-100, 0.2 mM sodium orthovanadate), the bound proteins were eluted with 0.1 M glycine pH 2.5 and then subjected to Western blotting using the paired antibodies together with a sample of the input and the last wash.

The test system of assay [7] is HeLa-A3 cells. Description: Cell adhesion assays, HeLa-A3. The class given is cell-based, human. The note with it: HeLa A3, S100P induced vs uninduced, weak trypsin digestion, n = 3. The protocol:
For kinetics of attachment either HeLa-A3 or COS-7 S10 cells were induced with 1 µg/ml doxycycline 48 h prior to experiment and 2 × 10^5 uninduced or induced cells in 1 ml were added to 24 well tissue culture dishes and allowed to adhere at 37°C. At the given time (30 min to 2 h) cells were washed 2× with PBS and detached with 250 µl 0.05% (w/v) trypsin in versene for 5 min at 37°C, neutralised in serum-containing media (SCM), counted and the percent of seeded cells recorded. For strength of adhesion, the same cells were seeded in 24 well tissue culture dishes so as to yield 80% confluence in 24 h. In all cases identical dishes were set up for test and control. After 24 h, wells were washed 2× and detached with 250 µl, 0.0125% (w/v) trypsin in versene for 5 min at 37°C. Wells were then carefully washed 2× to remove weak binders. Trypsin in versene (250 µl of 0.05% (w/v)) was then added to both test dish and control dish for 5 min to remove all cells from the well, neutralised with SCM and counted. The proportion of cells remaining after the weak digestion step was determined from the ratio of results from test and control plates. All assays were performed in triplicate.

Assay [8] deals with HeLa cells. Conditions: inducible HeLa (range stated for Rama 37 and HeLa) ref [10],[37]; cited from earlier work. From the text: (§3) In our previous study, we reported that S100P enhances cell migration by binding to and affecting distribution of NMIIA filaments in HeLa and Rama 37 cells. We now sought to determine whether S100P overexpression could induce such changes in cells when NMIIA was absent. The monkey kidney COS-7 cells have been reported to lack NMIIA [28] and this was confirmed in comparison with its presence in human HeLa and rat Rama 37 cells (Figure 1A). We then generated three S100P-inducible COS-7 cell lines using doxycycline as the inducing agent, the largest increase being in clone S10 (Figure 1B ...

The subject of assay [9] is Rama 37 cells. The note with it: inducible Rama 37 (range stated for Rama 37 and HeLa) ref [10],[37]; cited from earlier work.
Description: as §3

B1: S100P: recombinant or doxycycline-induced overexpressed S100P protein (protein)
chain: MTELETAMGMIIDVFSRYSGSEGSTQTLTKGELKVLMEKELPGFLQSGKDKDAVDKLLKDLDANGDAQVDFSEFIVFVAAITSACHKYFEKAGLK
Turning to B1, in assay [1] (0.15 M NaCl, 2 µM S100P), the “calcium concentration above which complex starts to form” value was “above 30 µM”. Further, the “calcium concentration saturating the reaction” value in [1] (0.15 M NaCl, 2 µM S100P) amounted to 0.2 mM. Moreover, the Kd in assay [1] (Kd from association/dissociation rate constants, 150mM NaCl, 0.5mM CaCl2, single cycle, S100P 20-2000 nM, CM5 chip, read-out: Kinetic dissociation constant Kd) was 120 ± 12 nM; in assay [1] (Kd from rate constants, 150mM NaCl, 0.5mM CaCl2, multiple cycles, read-out: Kinetic dissociation constant Kd), 210 ± 90 nM; in [1] (Kd from rate constants, 300M NaCl (so in the source), 0.5mM CaCl2, multiple cycles, read-out: Kinetic dissociation constant Kd), 890 ± 90 nM; in [1] (Kd from rate constants, 500M NaCl (so in the source), 0.5mM CaCl2, multiple cycles, read-out: Kinetic dissociation constant Kd), 8300 ± 700 nM; in assay [1] (at or near equilibrium, 300M NaCl (so in the source), 0.5mM CaCl2, multiple cycles, read-out: Equilibrium dissociation constant Kd) it was 1100 ± 160 nM. In [1] (Kd from rate constants, 150M NaCl (so in the source), EDTA 5mM, multiple cycles, 1L = incalculably large), the “Kinetic dissociation constant Kd” value was 1 L. The “calcium concentration at saturation of binding” value in assay [1] (SPR, Figure 2F-H) amounted to 200 µM. The “Equilibrium dissociation constant Kd” value in assay [1] (at or near equilibrium, 150M NaCl (so in the source), EDTA 5mM, multiple cycles, 1L = incalculably large) was 1 L. For the same molecule, the “reduction in tubulin polymerisation on S100P induction” value is approximately 30% in [2] (COS-7 S10, 4 h after second release, 1 µg/ml doxycycline); 31% and ~30% in assay [3]. Further, the “near steady-state reduction in biochemical assembly of MTs” value in [2] (Figure 5E, COS-7 S10) was 33%. In addition, the S100P-enhanced cell migration is given as 2–3 folds in assay [4] (COS-7 S10, doxycycline 1 µg/ml) and 3–4 folds in assay [5]. For the same molecule, the “fold increase in relative cell migration rate on S100P induction” value in [4] (three inducible COS-7 lines S7, S10, S23, 1 µg/ml doxycycline) lay in the range of 2.5 to 2.9 fold. The “complex with tubulin in immunoprecipitates” value in assay [6] is “immunoprecipitates produced with anti-S100P also contained tubulin”. The “fold decrease in strength of adhesion” value in assay [7] is on record as 1.58 fold. Moreover, the “fold increase in migration on S100P overexpression” value in [8] and in assay [9] was 3.2 to 4.8 fold throughout.
